According to paper PMC5084695 (Biochemistry, 2016):

Molecular target: the molecule itself
Assay: SEC-MALS

B1: SbnA (wild type, Staphylococcus aureus strain Newman) (enzyme, UniProt A6QDA0 1-326, looked up)
chain: MIEKSQACHDSLLDSVGQTPMVQLHQLFPKHEVFAKLEYMNPGGSMKDRPAKYIIEHGIKHGLITENTHLIESTSGNLGIALAMIAKIKGLKLTCVVDPKISPTNLKIIKSYGANVEMVEEPDAHGGYLMTRIAKVQELLATIDDAYWINQYANELNWQSHYHGAGTEIVETIKQPIDYFVAPVSTTGSIMGMSRKIKEVHPNAQIVAVDAKGSVIFGDKPINRELPGIGASRVPEILNRSEINQVIHVDDYQSALGCRKLIDYEGIFAGGSTGSIIAAIEQLITSIEEGATIVTILPDRGDRYLDLVYSDTWLEKMKSRQGVKSE
modifications: PLP (pyridoxal 5'-phosphate) covalently bound to Lys47 by an internal Schiff base (as isolated)
In the case of B1, the “stoichiometry N” value is reported as 2.
